Assay [1] concerns the target T1, Cynomolgus monkey PD-1-His protein (AcroBiosystems, # PD1-05223) (cynomolgus monkey, UniProt B0LAJ3 25-170).
T1 construct: Bought reagent, coated on the ELISA plate; also called cynomolgus monkey PD-1 protein
Briefly: ELISA, plate-coated cynomolgus monkey PD-1-His. How it is done: Cynomolgus monkey PD-1-His protein (AcroBiosystems, # PD1-05223) was diluted to 2 μg/mL with PBS, added to a 96-well plate (Corning, #9018) at 100 μL/well, and incubated at 4° C. overnight. After the liquid was discarded, the plate was washed 3 times with PBST, blocked by adding 250 μL of 2% BSA, and incubated at room temperature for 1 h. The blocking buffer was discarded, and the plate was washed 3 times with PBST buffer (pH 7.4, containing 0.05% Tween-20). The test antigen-binding protein was diluted to 5 μg/mL, and added at 100 μL/well. The plate was incubated at 37° C. for 1 h. After the plate was washed 3 times with PBST buffer (pH 7.4, containing 0.05% Tween-20), a 4000-fold diluted goat anti-human HRP secondary antibody (Invitrogen, #A18805) was added. The plate was incubated at 37° C. for 1 h. After the plate was washed, TMB (Biopanda, # TMB-S-003) was added at 100 μL/well. The plate was left away from light at room temperature for 5 min. The reactions were terminated by adding 50 μL of stop buffer (BBI life sciences, #E661006-0200) to each well, and the absorbance values at 450 nm (OD450) were measured using a microplate reader (PerkinElemer, #Enspire).
On the technique in general: In an ELISA, binding on a coated surface is turned into a signal by an enzyme label.

The target in assay [2] is T2, Human PD-1 protein with histidine and avi tags (ACRO Biosystems, PD1-H82E4) (human, UniProt Q15116 25-167).
T2 construct: Captured on streptavidin (SA) sensors in the BLI assay; not shown: histidine and avi tags
The experiment in a line: BLI (Octet Red96e), PD-1 captured on SA sensor, 1:1 local fit. How it is done:
Human PD-1 proteins with histidine and avi tags were purchased from the manufacturer ACRO Biosystems (Cat#: PD1-H82E4), and the assay buffer was 1× kinetics buffer (diluted from 10× kinetics buffer (ForteBio, Cat#: 18-1105)) for kinetic assay and dilution of antigens and antibodies. The binding kinetics between the antigen and the antibody was analyzed by the biolayer interferometry (BLI) technique using an Octet molecular interaction analyzer (ForteBio, model: Octet Red96e).
When the binding kinetics between the antigen and the antibody was determined, the rotation speed of the sensor was set at 1000 rpm/min. The eight SA sensors placed in a column were first equilibrated in an assay buffer for 10 min and then used to capture PD-1 at a capture height of 0.5 nm. Thereafter, the SA sensors were equilibrated in the assay buffer for 100 s, and then were associated with each antibody diluted to a single concentration and with a row of blank buffer wells for 180 s, followed by dissociation for 600 s. A new column of SA sensors were used in each cycle.
When data analysis was performed using Octet Data Analysis software (Fortebio, version 11.0), the reference signals were subtracted by a single reference mode (reference well), the data were fitted by a “1:1 Local fitting” method, and the kinetic parameters of the binding of the antigen to the antibody were calculated to obtain kon (1/Ms) values, kdis (1/s) values and KD (M) values.
(In general: BLI is a label-free optical method that tracks binding on a fibre tip over time.)

Assay [3] has as its target T3, Human PD-1 expressed on CHO-K1 cells (CHO-K1/hPD-1) (human, UniProt Q15116 25-288).
T3 construct: whole, on cells; also called CHO-K1 cells overexpressing human PD-1
The experiment in a line: FACS, CHO-K1/hPD-1 cells.

Assay [4] deals with T3, Human PD-1 expressed on CHO-K1 cells …. The experiment in a line: FACS, CHO-K1/hPD-1 cells. The source holds these as a separate data set. For orientation: Flow cytometry measures light scatter and fluorescence of single cells or particles in a stream.
Assay [5] addresses T4, Human PD-1-His protein (ACROBiosystems, # PD1-H5221) (human, UniProt Q15116 25-167).
T4 construct: Bought reagent, coated on the ELISA plate; also called human PD-1 protein; human PD-1 antigen; not shown: His tag
The experiment in a line: ELISA, plate-coated human PD-1-His. On the procedure: Human PD-1-His protein (ACROBiosystems, # PD1-H5221) was diluted to 2 μg/mL with PBS, added to a 96-well plate (Corning, cat#9018) at 100 μL/well, and incubated at 4° C. overnight. After the liquid was discarded, the plate was washed 3 times with PBST buffer (pH 7.4, containing 0.05% Tween-20), and 250 μL of 2% BSA blocking buffer was added. The plate was incubated at 37° C. for 1 h. The blocking buffer was discarded, and the plate was washed 3 times with PBST buffer (pH 7.4, containing 0.05% Tween-20). The test antigen-binding protein was 5-fold diluted in sequence at an initial concentration of 100 nM for a total of 8-10 concentration gradients, and added at 100 μL/well. The plate was incubated at 37° C. for 1 h. An isotype antibody was taken as a control. After the plate was washed 3 times with PBST buffer (pH 7.4, containing 0.05% Tween-20), a 4000-fold diluted goat anti-human HRP secondary antibody (Invitrogen, #A18805) was added. The plate was incubated away from light at 37° C. for 1 h. After the plate was washed 3 times with PBST buffer (pH 7.4, containing 0.05% Tween-20), TMB (Biopanda, # TMB-S-003) was added at 100 μL/well. The plate was left away from light at room temperature for about 5 min. The reactions were terminated by adding 50 μL of stop buffer (BBI life sciences, #E661006-0200) to each well, and the absorbance values at 450 nm (OD450) were measured using a microplate reader (PerkinElemer, #Enspire). The half maximal effective concentration (EC₅₀) was calculated from the measurement results.

Like-named read-outs stand apart in the source and are kept apart here.

T2 sequence (Q15116 25-167 limits assumed): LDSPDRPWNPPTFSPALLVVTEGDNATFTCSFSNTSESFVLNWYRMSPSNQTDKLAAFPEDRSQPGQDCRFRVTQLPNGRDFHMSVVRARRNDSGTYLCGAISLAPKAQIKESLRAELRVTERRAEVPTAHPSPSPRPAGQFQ
T3 sequence (Q15116 25-288): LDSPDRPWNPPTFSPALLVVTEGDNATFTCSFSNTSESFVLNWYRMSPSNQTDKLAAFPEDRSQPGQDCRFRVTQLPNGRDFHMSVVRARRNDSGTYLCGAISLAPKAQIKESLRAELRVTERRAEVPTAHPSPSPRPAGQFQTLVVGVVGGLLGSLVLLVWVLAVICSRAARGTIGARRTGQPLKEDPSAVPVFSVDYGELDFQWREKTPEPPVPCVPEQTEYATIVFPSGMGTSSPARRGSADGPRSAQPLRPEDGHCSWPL
T4 sequence (Q15116 25-167 limits assumed): as the sequence (Q15116 25-167 limits assumed) above
T1 sequence (B0LAJ3 entry or part of it limits assumed): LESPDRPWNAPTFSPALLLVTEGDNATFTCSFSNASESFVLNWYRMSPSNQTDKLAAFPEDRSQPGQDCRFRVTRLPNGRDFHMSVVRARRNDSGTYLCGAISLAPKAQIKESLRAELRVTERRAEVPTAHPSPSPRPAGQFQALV

B1: PR002481 (antibody, human IgG1, V domains shown)
VH: EVQLVETGGGLIQPGGSLRLSCAASGFNVSSHYMSWVRQAPGKGREWVSIIDGGGSTYYADSVKGRFTISRDNSKNRLYLQMNSLRAEDTAMYYCARATAVAEKNGYNYPFNYWGQGTLVTVSS
notes: Heavy-chain-only antibody (HCAb), human IgG1 Fc; two heavy chains, no light chain; also called R4004P556D1; anti-PD1 R4004P556D1 HCAb hG1
Regarding B1, in assay [1], the EC50 was 0.031 nM and the “OD Maximum” value amounted to 3.06. In addition, in assay [2], the dissociation constant (Kd) stood at 77 nM, the koff came out at 0.000768 s⁻¹ and the kon worked out at 9970 M⁻¹ s⁻¹. In addition, in assay [3], the EC50 came out at 8.18 nM and the “Maximum (MFI)” value was 2.75e+06. Moreover, in assay [4], the EC50 is 7.99 nM and the “Maximum (MFI)” value amounted to 2.63e+06. In addition, in assay [5], the 50% effective concentration (EC50) turned out to be 0.043 nM and the “OD Maximum” value turned out to be 2.85.

A word on the EC50: it is the concentration that produces a half-maximal response. As usually defined, the Kd is the equilibrium constant for the complex coming apart. A word on the koff: it is the first-order rate constant of dissociation. The kon is a measure of how fast the partners come together.

The values above are taken from patent US20240034792A1 (HARBOUR BIOMED SHANGHAI, published 2024).
